# Results from US20260308536A1, “NOVEL URICASE VARIANTS AND METHODS OF USE THEREOF” (priority 2023, published 2026).
# Tests used:
# Type in all cases: biochemical, Aspergillus flavus
# [1] = system: O=c1[nH]c(=O)c2[nH]c(=O)[nH]c2[nH]1; assay: Michaelis-Menten kinetics, RasU_D12-A56T; details: other: role: substrate; RasU_D12-A56T (SEQ ID NO: 267); pH 10.5; 25.0 °C
# Description: (§1) Select Aspergillus flavus uricase variants RasU_D12, as well as its subvariants RasU_D12-A56T, and RasU_D12-W160E; and RasU_D8, as well as its subvariants RasU_D8-T33V, RasU_D8-Y65H, RasU_D8-W160E, RasU_D8-A209N, and RasU_D8-T210K were subject to further characterization by comparing their expression yields, Michaelis-Menten kinetics parameters, and thermostability measured by temperatures at which 50% of normal activity was lost determined by heat stress activity assay, with those of the wild type Aspergillus flavus uricase. As the names of the subvariants indicated, the subvariants of RasU_D12 were constructed by introducing an additional amino acid substitution A56T or W160E into the RasU_D12 variant, while the subvariants of RasU_D8 were constructed by introducing an additional amino acid substitution T33V, Y65H, W160E, A209N, or T210K into the RasU_D8 variant. Each of the additional amino acid substitutions was to address residual T cell epitopes in the RasU_D8 or RasU_D12 variant. The expression yields were determined as described above in the “Methods” section. The determination of the Michaelis-Menten kinetics parameters kcat and KM, and the heat stress activity assay were likewise performed using the methods described in Example 1. […]
# [2] = system: O=c1[nH]c(=O)c2[nH]c(=O)[nH]c2[nH]1; assay: Michaelis-Menten kinetics, RasU_D12-W160E; details: other: role: substrate; RasU_D12-W160E (SEQ ID NO: 268); pH 10.5; 25.0 °C
# Description: as §1
# [3] = system: O=c1[nH]c(=O)c2[nH]c(=O)[nH]c2[nH]1; assay: Michaelis-Menten kinetics, RasU_D8-T33V; details: other: role: substrate; RasU_D8-T33V (SEQ ID NO: 269); pH 10.5; 25.0 °C
# Description: as §1
# [4] = system: O=c1[nH]c(=O)c2[nH]c(=O)[nH]c2[nH]1; assay: Michaelis-Menten kinetics, RasU_D8-W160E; details: other: role: substrate; RasU_D8-W160E (SEQ ID NO: 271); pH 10.5; 25.0 °C
# Description: as §1
# [5] = system: O=c1[nH]c(=O)c2[nH]c(=O)[nH]c2[nH]1; assay: Michaelis-Menten kinetics, RasU_D8-Y65H; details: other: role: substrate; RasU_D8-Y65H (SEQ ID NO: 270); pH 10.5; 25.0 °C
# Description: as §1
# [6] = system: O=c1[nH]c(=O)c2[nH]c(=O)[nH]c2[nH]1; assay: Michaelis-Menten kinetics, RasU_D8; details: other: role: substrate; RasU_D8 (SEQ ID NO: 236); pH 10.5; 25.0 °C
# Description: as §1
# [7] = system: O=c1[nH]c(=O)c2[nH]c(=O)[nH]c2[nH]1; assay: Michaelis-Menten kinetics, RasU_D12; details: other: role: substrate; RasU_D12 (SEQ ID NO: 229); pH 10.5; 25.0 °C
# Description: as §1
# [8] = system: O=c1[nH]c(=O)c2[nH]c(=O)[nH]c2[nH]1; assay: Michaelis-Menten kinetics, RasU_D8-A209N; details: other: role: substrate; RasU_D8-A209N (SEQ ID NO: 272); pH 10.5; 25.0 °C
# Description: as §1
# [9] = system: O=c1[nH]c(=O)c2[nH]c(=O)[nH]c2[nH]1; assay: Michaelis-Menten kinetics, RasU_D8-T210K; details: other: role: substrate; RasU_D8-T210K (SEQ ID NO: 273); pH 10.5; 25.0 °C
# Description: as §1
substance,measurement,setting,value
Aspergillus flavus uricase variant RasU_D12-A56T (Aspergillus flavus; A230N/A241D/A57T/A97K/E42N/I83E/N101D/S148D/T211K),Km,[1],1500 ± 600 µM
same,kcat,[1],1.4 ± 0.3 s⁻¹
Aspergillus flavus uricase variant RasU_D12-W160E (Aspergillus flavus; A230N/A241D/A97K/E42N/I83E/N101D/S148D/T211K/W161E),Km,[2],1700 ± 1000 µM
same,kcat,[2],1.7 ± 0.5 s⁻¹
Aspergillus flavus uricase variant RasU_D8-T33V (Aspergillus flavus; A230N/A241D/A97K/E42N/I83E/N101D/S148D/T34V/V54N),Km,[3],3000 ± 1000 µM
same,kcat,[3],1.6 ± 0.5 s⁻¹
Aspergillus flavus uricase variant RasU_D8-W160E (Aspergillus flavus; A230N/A241D/A97K/E42N/I83E/N101D/S148D/V54N/W161E),Km,[4],600 ± 200 µM
same,kcat,[4],1.2 ± 0.2 s⁻¹
Aspergillus flavus uricase variant RasU_D8-Y65H (Aspergillus flavus; A230N/A241D/A97K/E42N/I83E/N101D/S148D/V54N/Y66H),Km,[5],3000 ± 1000 µM
same,kcat,[5],1.7 ± 0.5 s⁻¹
Aspergillus flavus uricase variant RasU_D8 (Aspergillus flavus; A230N/A241D/A97K/E42N/I83E/N101D/S148D/V54N),Km,[6],900 ± 200 µM
same,kcat,[6],0.8 ± 0.1 s⁻¹
Aspergillus flavus uricase variant RasU_D12 (Aspergillus flavus; A230N/A241D/A97K/E42N/I83E/N101D/S148D/T211K),Km,[7],400 ± 100 µM
same,kcat,[7],1.3 ± 0.1 s⁻¹
Aspergillus flavus uricase variant RasU_D8-A209N (Aspergillus flavus; A210N/A230N/A241D/A97K/E42N/I83E/N101D/S148D/V54N),Km,[8],1100 ± 300 µM
same,kcat,[8],1.1 ± 0.1 s⁻¹
Aspergillus flavus uricase variant RasU_D8-T210K (Aspergillus flavus; A230N/A241D/A97K/E42N/I83E/N101D/S148D/T211K/V54N),Km,[9],3000 ± 2000 µM
same,kcat,[9],2.0 ± 0.7 s⁻¹
